The values below come from PMC10370356, “Molecular dissection studies of TAC1, a transcription activator of Candida drug resistance genes of the human pathogenic fungus Candida albicans” (Frontiers in Microbiology, 2023).

The target in this assay is T1, His-tagged C. albicans TATA box Binding Protein (TBP) (C. albicans, UniProt O43133 1-238).
T1 construct: Vector pET28a; fusion protein said to be 30 kDa; also called TBP1; TBP-pET28a; source: E. coli BL21 (DE3), purified (Ni-NTA)
T1 sequence: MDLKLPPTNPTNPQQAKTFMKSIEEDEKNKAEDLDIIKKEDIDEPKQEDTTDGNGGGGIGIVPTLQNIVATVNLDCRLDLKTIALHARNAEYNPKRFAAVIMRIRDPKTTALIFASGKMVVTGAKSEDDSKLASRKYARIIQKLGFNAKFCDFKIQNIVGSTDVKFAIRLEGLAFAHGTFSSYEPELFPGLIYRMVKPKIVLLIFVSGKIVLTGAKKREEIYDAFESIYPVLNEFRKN
In words: pull-down; GST-AAD and His-TBP incubated with Glutathione Sepharose 4B beads, 3 h, 4 C, 20 mM HEPES pH 7.5, 200 mM NaCl, 0.1 mM EDTA, 10% glycerol, 0.1% NP-40; washes with 500 mM NaCl; eluted with 10 mM reduced glutathione; immunoblot with anti-GST and anti-His. The settings on record: both partners purified.

B1: GST-tagged Acidic Activation Domain (AAD) of Tac1p (domain or fragment)
chain: MNPSPTITNNTYNSNINTGSNSTGEPQVCYAQSPSYNASLSNIINNESTGRSPATSTSINQSMMNENYDLFNDYLIDNSAVNLPFSQFNNLPNFFFDNNLGI
notes: amplified from genomic DNA of strain SC5314; Vector pGEX-KG; fusion protein said to be 33 kDa; several closely spaced bands (degradation) on the anti-GST blot; The introduction gives other limits for the AAD (nucleotides 1354-2946); also called Tac1-AAD; TAC1-AAD; source: E. coli BL21 (DE3), purified (Glutathione Sepharose 4B)
Consider B1, for which the binding result was “binds”.
